Test results taken from patent CN114349855A (BAISIS MEDICAL DIAGNOSIS SCIENCE AND TECH BEIJING LIMITED …, dated 2022).

What was measured:
Experiment in all cases: ELISA, S protein coated at 2 μg/mL
新型冠状病毒Alpha Spike蛋白 = molecular target: T1, 新型冠状病毒Alpha Spike蛋白 (新型冠状病毒 (SARS-CoV-2) Alpha突变株, UniProt P0DTC2 16-1213)
T1 construct: also called Alpha的S蛋白

新型冠状病毒Beta Spike蛋白 = molecular target: T2, 新型冠状病毒Beta Spike蛋白 (新型冠状病毒 (SARS-CoV-2) Beta突变株, UniProt P0DTC2 16-1213)
T2 construct: also called Beta的S蛋白

新型冠状病毒Gamma Spike蛋白 = molecular target: T3, 新型冠状病毒Gamma Spike蛋白 (新型冠状病毒 (SARS-CoV-2) Gamma突变株, UniProt P0DTC2 16-1213)
T3 construct: also called Gamma的S蛋白

Measured: binding result

B1: 抗体 克隆号9A5D9 22G3 (antibody, V domains shown)
VH: EVQLVESGGGLVKPGGSLRLSCAASGFTFSSYSMNWVRQAPGKGLEWVSSISRSSSYIYYADSVMGRFTISRDNAKNSLYLQMNSLRADDTAVYYCARDRGSGNYYVDGLDIWGQGTMVTVSS
VL: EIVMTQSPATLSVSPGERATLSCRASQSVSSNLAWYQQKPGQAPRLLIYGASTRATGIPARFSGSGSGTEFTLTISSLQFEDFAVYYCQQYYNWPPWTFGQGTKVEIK
no binding (tested: 1 μg/mL): all assays above

B2: 抗体 克隆号7D7G3D4 (antibody, V domains shown)
VH: EVQLVESGGGLVQPGGSLRLSCAASGLTVSSNHMSWVRQAPGKGLEWVSIIYSGGSTYYADSVKGRFTISRDNSKNTLYLQMDSLRAEDTTVYYCARAQGGWELPGAGYYYFNGMDFWGQGTTVTVSS
VL: DIQMTQSPSSLSASVGDRVTITCRASQSISTYLNWYQQKPGKAPKLLIYAASNLQSGVPSRFSGSASGTDFTLTISSLQPEDFATYFCQQSYSTSFTFGPGTKVDIK
no binding (tested: 1 μg/mL): all assays above

B3: 抗体 克隆号9A5F6 23F1 (antibody, V domains shown)
VH: QVQLVESGGGVVQPGRSLRLSCAASGFTFSSYAMYWVRQAPGKGLECVAGISYDGSNKYYADSVKGRFTISRENSKNTLYLQMNSLISEDTAVYYCARAEWDYWGQGTLVTVSS
VL: SYELTQPSSVSVSPGQTARITCSGDVLAKKYARWFQQKPGQAPVLVIYKDSERPSGIPERFSGSSSGTTVTLTISGAQVEDEADYYCYSAADNNLGVFGGGTKL
no binding (tested: 1 μg/mL): all assays above
